# From the nanobody polyreactivity screen of Harvey et al. (2022)
# Assay: yeast display, Sf9 membrane polyspecificity reagent, FACS + sequencing; frameworks hold sequencing errors
# Method in brief: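 Nanobodies came from a synthetic yeast display library in Saccharomyces cerevisiae BJ5465, induced with galactose for 36–48 hours and stained for 1 hour at 4 °C with 10% biotinylated, detergent-solubilized Sf9 membrane reagent. Cells were enriched on streptavidin microbeads and then FACS-sorted, with low and high (top ~1%) gates set on anti-HA fluorescence for expression and streptavidin fluorescence for reagent binding. Each polyreactivity label reflects the gate a clone came from. Genes were amplified by colony PCR, sequenced by MiSeq 2 × 250 and filtered by CDR length.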
row,Sequence,polyreactivity (PSR sort gate)
1,QVQLVESGGGLVQAGGSLRLSCAASGRTFHRNAMGWYRQAPGKERELVAAITGDGRTNYADSVKGRFTITRDNAKNTVSLQMNSLKPEDTAVYYCFSYDYDYWGQGTQVTVSS,low polyreactivity
2,QVQLVESGGGLVQAGGSLRLSCAASGRTFHRYAMGWYRQAPGKERELVAAITYRGGRTYYADSVKGRFTISRDNANNTVYLQMNSLKPEDTAVYYCNTTQYSPIHDPGDYWGQGTQVTVSS,low polyreactivity
3,QVQLVESGGGLVQAGGSLRLSCAASGRTFHSNAMGWYRQAPGKERELFAAISYSGGSTYYADSVKGRFTISRDNAKNTVYLQMNSLKPEDTAVYYCNAGAVHKKPARDYWGQGTKVTVSS,low polyreactivity
4,QVQLVESGGGLVQAGGSLRLSCAASGRTFHSNAMGWYRQAPGNDRELVASSRRGSRTYYADSVKGRFTISRDNAKNTVSLQLTSLKPEDTAVYYCAAAQVGYYVGSVTYGYWGQATQVTVSS,high polyreactivity
5,QVQLVESGGGLVQAGGSLRLSCAASGRTFHTYAMGWYRQAPGKERELVARITRSGTSTYYADSVKGRFTISRDNAKNTVYLQMNSLKPEDTAVYYCAKPWFLWGYSTSYDWGQGTQVTVSS,high polyreactivity
6,QVQLVESGGGLVQAGGSLRLSCAASGRTFHVYAMGWYRQAPGKERELVATITDGSTNYADSVKGRFTISRDNAKNTVYLQMNRLKPEDNAVYYCATVRDWIPSGDYEYWGQCTQVTVSS,low polyreactivity
7,QVQLVESGGGLVQAGGSLRLSCAASGRTFHWYAMGWYRQAPGKERELVAAIRYSAGSTYYADSVKGRFTISRDNAKNTVYLQMNSLKPEDTAVYYCAAEPYPYGPYYFLWLRYDYWGQGTQVTVSS,low polyreactivity
8,QVQLVESGGGLVQAGGSLRLSCAASGRTFHYNAMGWYRQAPGKERELVAAISFNGGGTYYADSVKGRFTISRDNAKNTVYLQMNSLKPEDTAVYYCNVDAAGSNSHARHDSWGQGTQVTVSS,low polyreactivity
9,QVQLVESGGGLVQAGGSLRLSCAASGRTFHYYAMGWYRQAPGKERELVAAISRGGNTYYADSVKGRFTISRDNAKNTVYLQMNSLKPEDTAVYYCAKDNHFEAYRYDYWGQGTQVTVSS,high polyreactivity
10,QVQLVESGGGLVQAGGSLRLSCAASGRTFHYYAMGWYRQAPGKERELVAAITSSGGSTYYADSVKGRFTISRDNANNTVYLQMNSLKPEDTAVYYFNAYSSYIKYDYWGQGTQVTVSS,high polyreactivity
11,QVQLVESGGGLVQAGGSLRLSCAASGRTFIANAMGWYRQAPGKERELVAVITLNGGSTYYADSVKGRFTISRDNAKSTVYLQMISLKPEDTAVYYCAAGRYYNLRATHGYWGQGTQVTVSS,low polyreactivity
12,QVQLVESGGGLVQAGGSLRLSCAASGRTFIAYGMGWYRQAPGKERELVAAISRNGASTYYADSVKGRFTISRDNAKNTVYLQMNSLKPEDNAVYYCAAGYIRSRGGRWTHSGYWGQGTQVTVSS,high polyreactivity
13,QVQLVESGGGLVQAGGSLRLSCAASGRTFIGYAMGWYRQAPGKERELVATISVSGGSTYYADSVKGRFTISRDNAKNTVYLQMNSLTPVDTAVYYCADDPRYLQSWRGEFAGESWGQGTQVTVAS,low polyreactivity
14,QVQLVESGGGLVQAGGSLRLSCAASGRTFIGYNMGWYRQAPGKERELVAAITWNGGRTYYADSVKGRFTISRDNAKNTVYLQMNSLKPEDTAVYYCAAPRRVVIGGGDYWGQGTQVTVSS,high polyreactivity
15,QVQLVESGGGLVQAGGSLRLSCAASGRTFIINGMGWYRQAPGKERELVAAITTSGGSTYYADSVKGRFTISRDNAKNTVYLQMNSLKPEDTAVYSCAADVFSRKYLYGDYDYWGQGTQVTVSS,high polyreactivity
16,QVQLVESGGGLVQAGGSLRLSCAASGRTFIQYAMGWYRQAPGKERELVAAISLSGGSTYYADSVKGRFTISRDNAKNTVYLQMNSLKPEDTAVYYCNAGYYWGQGTQVTVSS,high polyreactivity
17,QVQLVESGGGLVQAGGSLRLSCAASGRTFIRNAMGWYRQAPGKERELVAAITRSGGSTYYADSVKGRFTISRDNAKNTVYFQMNSLKPEDTAVYYCAAQPFYYLVGVPDDYWGQGTHVTVSS,low polyreactivity
18,QVQLVESGGGLVQAGGSLRLSCAASGRTFIWYAMGWYRQAPGKERELVAAISYSGASTYYADSVKGRFTNSRDNAKNTVYLQMNSLKPEDTAVYYCYPLGTYSYDYWGQGTQVTVSS,high polyreactivity
19,QVQLVESGGGLVQAGGSLRLSCAASGRTFIYYAMGWYRQAPGKEREFVAIISWNGTSTNYADSVKGRFTISRDKAKNTVYLQMNSLKPEDTAVYYCAASFWSDYYRYDYWGQGTQVTVSS,low polyreactivity
20,QVQLVESGGGLVQAGGSLRLSCAASGRTFKDYAMGWYRQAPGKERELVAAISWSGGDTYYADSVKGRFTISRDNAKNTVYLQMNRLKPEDTAVYYCNADPSGVFFYSLEFDYWGQGTQVTVSS,low polyreactivity
21,QVQLVESGGGLVQAGGSLRLSCAASGRTFKGYVMGWYRQAPGKERELVAAITYGGGSTYYADSVKGRFTISRDNAKNTVYLQMNSLKPEDTAVYYCAADSIYGTKYDYWGQGTQVTVSS,high polyreactivity
22,QVQLVESGGGLVQAGGSLRLSCAASGRTFKHNAMGWYRQAPGKERELVAAINQSGSSTYYADSVKGRFTISRDNAKNTVYLQMNSLKPEDTAVYYCAAGVFFFTFDYWGQGTQVTVSS,low polyreactivity

row,Sequence,polyreactivity (PSR sort gate)
1,QVQLVESGGGLVQAGGSLRLSCAASGRTFKHYAMGWYRQAPGKERELVAGISRGGGITYYADSVKGRFTISRDNAKNTVYLQMNSLKPDDTAVYYCNAYDLYKSGGDYWGQGTQVTVSS,high polyreactivity
2,QVQLVESGGGLVQAGGSLRLSCAASGRTFKKYAMGWYRQAPGKEREMVAAITGSGGSTYYADSVKRRFTISRDNAKNTVYLQMNSLKPEDTAVYYCAAYAYGVWHSQDGGNYWGQGTQVTVSS,low polyreactivity
3,QVQLVESGGGLVQAGGSLRLSCAASGRTFKLNAMGWYRQAPGKERELVAAISRNGGSTYYADSVKGRFTISRDNAKNTVYLQMTSLKPEDTAVYYCAAVRHGVSLAGYYWGQGTQVTVSS,high polyreactivity
4,QVQLVESGGGLVQAGGSLRLSCAASGRTFKLYAMGWYRQAPGKERELVAAITESGGSTYYAVSVKGRFTISRDNAKNTVYLQMNSLKPEDTAVYYCAAYASAGTRGGYDYWGQGTQVTVSS,low polyreactivity
5,QVQLVESGGGLVQAGGSLRLSCAASGRTFKRNAMGWYRQAPGKERELVAAISSDGRTNYADSVKGRFTISRDNAKNTVYLQMNSLKPEDTAVYYCAASYVLSYGTYYYWGQGTQVTVSS,low polyreactivity
6,QVQLVESGGGLVQAGGSLRLSCAASGRTFKRNAMGWYRQAPGKERELVAGISGSGTTTYYADSVKGRFTISRDNAKNTVYLQMNSLKPEDTAVYYCAARALSHGARYDYWGQGTQVTVSS,high polyreactivity
7,QVQLVESGGGLVQAGGSLRLSCAASGRTFKRYAMGWYRQAPGKERELVAAITWSGGNTYYADSVKGRFTISRDNAKNTVYLQINSLKPEDTAVYYCAAKGAGRRYDSWGQGTQVTVSS,high polyreactivity
8,QVQLVESGGGLVQAGGSLRLSCAASGRTFKSYAMGWYRQAPGKERELVAAISKRGGSTYYADSVKGRFTISRDNAKNTVYLQMNSLKPADTAVYYCNKLYLKPGRYYYWGQGTQVTVSS,high polyreactivity
9,QVQLVESGGGLVQAGGSLRLSCAASGRTFKVYAMGWYRQAPGKERELVAAITGGGSTNYADSVKGRFTISRDNAKNTVYLQMNSLKPEDTAVYYCNARYYYRLVKWSRFSSYDYWGQGTQVTVSS,low polyreactivity
10,QVQLVESGGGLVQAGGSLRLSCAASGRTFKYNAMAWYRQAPGTERELVADISYSGDSTYYADSVKGRFTISRDNAKNTVYLQMNSLKPEDTAVYYCNAVLTHGRLWRAHGYWGQGTQVTVSS,high polyreactivity
11,QVQLVESGGGLVQAGGSLRLSCAASGRTFKYNAMGWYRPAPGKERELVAAISSTGSTNYADSVKGRFTISRDNAKNTVYLQMNSLKPEDTAVYYCAASYFFVQWGWYYYWGQGTQVTVSS,low polyreactivity
12,QVQLVESGGGLVQAGGSLRLSCAASGRTFKYNAMGWYRQAPGKERELVAAIRKSGTRTYYADSVKGRFTISRDNAKNTVYLQMNSLKPEDTAVYYCNRVGFDYWGQGTQVTVSS,low polyreactivity
13,QVQLVESGGGLVQAGGSLRLSCAASGRTFKYNAMVWYRQAPGKERELVATISGSGGRKYYADSVKGRFTISRDNAKNTVYLQMNSLKPEDTAVYYCKAPRVKWLDWGQGTKVTVSS,high polyreactivity
14,QVQLVESGGGLVQAGGSLRLSCAASGRTFKYNSMGWYRQAPGKERELVAAITRSGSTYYADSVKGRFTISRDNAKNTVYLQMNSLKPEDTAVYYCNARIVNYGSYYYWGQGTQVTVSS,high polyreactivity
15,QVQLVESGGGLVQAGGSLRLSCAASGRTFKYNVMGWYRQAPGKERELVAAISSGGGTNYADSVKGRFTISRDNAKNTVYLQMNSLKPEDTAVYYCAAKYAWRLLEMYYWGQGTQVTVSS,low polyreactivity
16,QVQLVESGGGLVQAGGSLRLSCAASGRTFKYYAMGWYRQAPGKERELVAAISLSSGRTYYADSVKGRFTISRDIAKNTVYLQMNSLKPEDTAVYYCARVTTGGYEYWGQGTQVTVSS,high polyreactivity
17,QVQLVESGGGLVQAGGSLRLSCAASGRTFKYYAMGWYRQAPGKERELVAAISNGGRTNYADSVKGRFTISRDNAKNTVYLQMNSLKPEDTAVYYCAKRSFYFSDYDYWGQGTQVTVSS,high polyreactivity
18,QVQLVESGGGLVQAGGSLRLSCAASGRTFKYYAMGWYRQAPGKERELVATISFRGGSTYYADSVKGRFTISRDNAKNTVYLQMNSLKPEDTSVYYCARRQWSRRPDDYWGQGTQVTVSS,high polyreactivity
19,QVQLVESGGGLVQAGGSLRLSCAASGRTFKYYAMGWYRQAPGKERELVATITWSGTSTNYADSVKGRFTISRDTANNSVYLQMNSLKPEDTAVYYCAARSKRRNYDYWGQGTQVTVSS,high polyreactivity
20,QVQLVESGGGLVQAGGSLRLSCAASGRTFKYYTMGWYRQAPGKEREFVAAITSSGGRTYYADSVKGRFTISRDNAKNTVYLQMNSLKPEDTAVYYCAASTYRVWLAPATLSRYDYWGQGTQVTVSS,high polyreactivity
21,QVQLVESGGGLVQAGGSLRLSCAASGRTFKYYTMGWYRQAPGKERELVAAITGSGGSTYYADSVKGRFTISRDNAKNTVYLQMNSLKPEDTAVYYCAAYRTFSREYYYWGQGTQVTVSS,high polyreactivity
